In article PMC4224142:

Biological target: JunD, endogenous in LNCaP cells (human (endogenous in LNCaP)) (UniProt P17535)
Assay: proximity ligation

UniProt P17535, sequence (P17535 whole entry): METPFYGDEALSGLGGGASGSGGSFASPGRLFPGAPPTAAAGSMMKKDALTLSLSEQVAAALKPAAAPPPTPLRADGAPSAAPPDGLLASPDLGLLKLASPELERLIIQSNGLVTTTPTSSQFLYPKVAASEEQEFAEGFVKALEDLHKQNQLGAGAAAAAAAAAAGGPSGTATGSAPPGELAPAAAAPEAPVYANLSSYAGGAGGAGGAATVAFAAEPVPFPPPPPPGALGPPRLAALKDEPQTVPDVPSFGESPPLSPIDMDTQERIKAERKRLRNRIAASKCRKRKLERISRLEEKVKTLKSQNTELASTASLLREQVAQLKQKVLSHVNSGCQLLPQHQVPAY

- fold induction of PLA spots per cell by androgen (against cells without R1881): 3 fold
Substance: Androgen receptor (AR), endogenous in LNCaP cells (from UniProt P10275 1-920)
